Data as given in the supplement of paper PMC10567573.

B1: ATL3 (parent)
chain: HFKKTKKMGGKDFSFRYQQELEEE
B2: ZNF24 (parent)
chain: YGETCFPKGRFERKRNPSRKKQHI

Variants of: B1
Test: protein stability index of a GFP-peptide fusion (GPS, HEK-293T) (PSI 1-6); higher = more stable
Conditions: c terminus: a fixed tail appended
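Note: lentivirally expressed fusions sorted by FACS into six bins by GFP to DsRed ratio, PSI derived from sequencing read proportions per bin multiplied by bin number.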

Protein stability index of substitutions, site by site:
T5: R 1.31; I 2.17; G 1.35; K 2.22; P 1.78; S 2.26; V 2.75; Q 1.8
F15: P 4.31; M 2.39; L 2.46; H 2.71; K 3.04
K11: V 2.39; I 2.27; P 2.06; W 1.78; C 2.17; A 2.69; H 2.11; Y 1.26
S14: D 4.48; F 3.85; K 3.31; W 4.01; P 3.12; C 1.08; Q 1.93; G 2.54
E23: G 1.88; S 2.2; M 2.61; V 2.27; D 2.42; L 2.22; C 3.01; P 4.12
G9: P 2.05; S 1.75; F 2.64; M 1.28; A 1.41; I 2.48; Q 1.96
Q18: R 1.44; I 1.85; L 2.64; H 2.34; T 2.27
E22: L 1.99; F 1.85; P 3.31; M 1.8; N 1.72; D 2.2
D12: S 2.65; L 2.67; T 2.24; R 1.96; P 1.99; A 1.88
H1: A 2.35; L 1.65; F 1.88; M 2.32; V 2.26; T 3.89
E20: S 3.94; F 3.58; H 3.98; I 3.47
L21: P 4.57; F 1.53; M 1.53; Y 1.4; V 2.72; E 3.19; H 2.44; K 3.3
Y17: P 4.68; E 5.02; N 5.28; V 2.03; G 4.68; S 3.14; T 2.38
K6: W 1.51; S 1.81; I 1.37; A 2.4; N 2.15; R 1.99; F 3.58
M8: E 2.72; F 1.68; Q 2.21; I 1.96; L 1.48; A 2.39; W 2.35; R 2.81; P 1.92; D 2.14
K7: P 2.56; S 2.04; M 2.88; C 2.44; H 2.32; N 2.11; L 2.1
K4: M 2.26; Q 1.75; L 2.6; H 2.1; C 2.55; N 2.26; V 1.62; P 1.82; A 2.72; I 1.66
Q19: C 1.57; I 1.46; D 3.36; V 2.92; W 2.03; H 2.38; P 3.56
R16: S 4.39; G 4.22; D 5.02; N 3.69; C 3.28; L 2.45
K3: Y 2.75; S 1.79; R 2.42; M 2.71; I 1.89; V 2.4; W 1.02; P 1.9; T 1.04; N 2.18; E 1.43
E24: I 2.16; S 2.85; Y 1.54; G 2.63; A 2.68; T 2.39; R 3.35
G10: I 1.68; W 1.7; T 1.61; R 2.03; L 2.07; E 5.39; M 2.71; S 3.53
F2: P 1.26; E 1.09; V 2.62; C 1.8; Q 3.05; H 1.62; L 1.39; Y 2.1; I 2.65; D 2.65
F13: Y 2.75; N 5.05; V 4.96; Q 5.21; K 4.09; D 5.57; E 5.36

Variants of: B2
Test: as above
Conditions: c terminus: a fixed tail appended

Protein stability index: each site, then its substitutions
Y1: Q 3.96; W 2.6; R 3.63; T 3.6; F 1.9; V 4.09; K 3.75; D 4.25; N 4.4; L 3.9; S 4.4; A 4.36; P 4.1; E 4.46; G 4.63; I 3.74; M 3.99; H 4.11; C 3.45
K8: H 2.1; Q 2.13; T 2.49; V 2.36; A 2.17; C 1.68; P 2.11; L 2.07; N 1.93; Y 2.74; D 3.56; I 2.49; R 2.88; G 2.93; S 2.42; E 2.96
E3: K 3.11; V 3.66; W 2.26; R 2.9; D 2.2; N 1.95; H 2.56; T 2.62; G 2; M 3.41; F 2.71; I 2.71; S 2.04; L 2.96; Q 3.2; A 2.4; Y 2.37; C 2.75; P 2.54
G2: H 2.15; K 3.21; Q 3.44; P 2.89; N 3.65; A 2.34; T 2.33; F 2.51; M 3; E 4.37; W 3.17; V 2.74; R 3.41; D 4.33; L 2.58; I 1.76; S 3.4; Y 2.58; C 2.1
F6: N 4.03; D 4.46; R 3.7; A 3.64; Y 4.74; T 4.36; E 4.51; W 1.77; K 3.38; C 3.87; V 3.82; I 3.61; S 3.73; P 4.35; L 3.79; Q 4.02; M 4.07; G 3.8; H 4.08
G9: K 3.15; C 1.98; H 2.72; N 3.06; M 2.18; I 1.94; L 2.12; F 2.29; D 2.71; A 2.11; E 3.39
C5: H 3.63; V 3.17; K 4.01; W 2.53; P 3.61; G 2.17; D 2.67; Q 3.15; F 3.83; L 3.05; A 3.17; T 2.47; I 3.16; R 3.29; Y 1.95; S 3.7; E 3.15; M 2.25; N 2.43
P7: Y 1.76; W 2.57; C 2.81; A 2.77; R 2.93; D 3.5; I 2.5; Q 2.26; K 3.35; V 3.12; E 3.63; H 2.43; G 2.82; M 3.07; L 1.9; T 3.02; S 2.28; N 3.69
T4: V 3.38; Y 2.09; S 3.43; D 3.14; C 2.12; G 2.33; M 2.47; R 3.37; I 3.04; A 2.96; H 2.98; E 3.24; N 2.37; K 2.13; P 1.89; F 2.1; W 1.02; L 2.45
